Measured values from patent US20230382948A1, “DELIVERY OF ENDOTHELIAL CELL-LADEN MICROGEL ELICITS ANGIOGENESIS IN SELF-ASSEMBLING ULTRASHORT PEPTIDE HYDROGELS” (KING ABDULLAH UNIVERSITY OF SCIENCE AND TECHNOLOGY, priority 2020, published 2023).
Where no end group is shown, it is not given here. [ ]: non-standard residue; d: D form. Cha = N[C@@H](CC1CCCCC1)C(=O)O

Assays:
[1] = Rheological characterization of SUP bulk hydrogels; assay type: physicochemical
Method: The mechanical stiffness of the peptide hydrogels was analyzed using a TA Ares-G2 Rheometer equipped with parallel-plate geometries of 8 mm diameter at room temperature. The sample gap between the upper and the lower geometries was set at 1.8 mm. The hydrogels were prepared from 135 μL of peptide solution that was mixed with 15 μL of 10×PBS in an 8 mm i.d. poly(methyl methacrylate) (PMMA) casting ring and left for 1 day before measurement. The rings were kept inside Petri dishes at room temperature with water surrounding them and tightly sealed to avoid dehydration. To control the accuracy of the measurements, six replicates for each peptide hydrogel were prepared. The stiffness was analyzed through three successive tests, which were time sweep, frequency sweep, and amplitude sweep. Time sweep was first performed for 5 min with an angular frequency and a strain of 1 rad/s and 0.1%, respectively. A frequency sweep was subsequently performed on the sample for a range of angular frequency of 0.1-100 rad/s with the same strain of 0.1%. The tests were completed with the amplitude sweep by applying a gradual increase of strain […] at 1 rad/s angular frequency.

[2] = Peptide gelation study (vial inversion method); assay type: physicochemical; conditions: 1 mg/ml and 10 mg/ml, compared to IIZK and IZZK, FIG. 57
Method: The preweighed (as per the required final concentration) peptide powder was dissolved in 0.9 mL of Milli-Q® water in a glass vial. The solution was vortexed for 5-10 s to obtain a clear and homogeneous solution. To this peptide solution, 0.1 mL of PBS buffer (10×, w/o Ca^2+ and Mg^2+) was added. To ensure a homogeneous distribution of buffer in the solution, the glass vial was further vortexed for 2-3 s. The glass vial was kept undisturbed on the bench, and hydrogel formation was observed using the vial inversion method, as shown in FIG. 9. The pH of the solutions of IVFK (SEQ ID NO. 1) and IVZK (SEQ ID NO. 2) was 5.57 and 5.48 at a 5 mg/mL concentration, respectively. After the addition of PBS, the pH changed to 7.7 and 7.6 for IVFK (SEQ ID NO. 1) and IVZK (SEQ ID NO. 2), respectively. The pH of the Milli-Q® water and phosphate buffer used was 6.7 and 7.4, respectively.

Substance	Loss modulus (G″) ([1]; 1 mg/mL) [kPa]	Storage Modulus (G′, kPa) ([1]; 1 mg/mL) [kPa]	tan δ (G″/G′) ([1]; 1 mg/mL)	Loss modulus (G″) ([1]; 2 mg/mL) [kPa]	Storage Modulus (G′, kPa) ([1]; 2 mg/mL) [kPa]	tan δ (G″/G′) ([1]; 2 mg/mL)	Loss modulus (G″) ([1]; 5 mg/mL) [kPa]	Storage Modulus (G′, kPa) ([1]; 5 mg/mL) [kPa]	tan δ (G″/G′) ([1]; 5 mg/mL)	Loss modulus (G″) ([1]; 8 mg/mL) [kPa]	Storage Modulus (G′, kPa) ([1]; 8 mg/mL) [kPa]	tan δ (G″/G′) ([1]; 8 mg/mL)	Loss modulus (G″) ([1]; 10 mg/mL) [kPa]	Storage Modulus (G′, kPa) ([1]; 10 mg/mL) [kPa]	tan δ (G″/G′) ([1]; 10 mg/mL)	Loss modulus (G″) ([1]; 13 mg/mL) [kPa]	Storage Modulus (G′, kPa) ([1]; 13 mg/mL) [kPa]	tan δ (G″/G′) ([1]; 13 mg/mL)	Self-assembly rate (time to form a gel) [2]
IIFK: self-assembling ultrashort tetrapeptide, one-letter sequence IIFK	0.13 ± 0.04	1.25 ± 0.86	0.10	1.31 ± 0.12	14.45 ± 1.37	0.09	2.39 ± 0.11	27.26 ± 1.30	0.09	5.00 ± 0.31	49.74 ± 5.02	0.10	9.04 ± 0.56	94.18 ± 7.12	0.10	8.90 ± 0.36	108.21 ± 5.02	0.08	slower than the Cha-containing peptides
IIZK: self-assembling ultrashort tetrapeptide, Cha-containing, one-letter sequence IIZK (II[Cha]K)	0.88 ± 0.04	6.52 ± 0.18	0.13	2.02 ± 0.09	16.82 ± 0.72	0.12	7.08 ± 0.59	64.74 ± 4.89	0.11	10.91 ± 0.44	89.40 ± 1.86	0.12	15.54 ± 0.68	134.04 ± 5.99	0.12	37.76 ± 2.38	271.34 ± 35.09	0.14	–
